Reference: article PMC11332825, “Residues in the fructose-binding pocket are required for ketohexokinase-A activity” (The Journal of Biological Chemistry, 2024)
Positions count from the first letter of the chain named. Numbers in names are those of the source.

B1: human ketohexokinase-A (KHK-A), wild type (enzyme)
chain: QILCVGLVVLDVISLVDKYPKEDSEIRCLSQRWQRGGNASNSCTVLSLLGAPCAFMGSMAPGHVADFVLDDLRRYSVDLRYTVFQTTGSVPIATVIINEASGSRTILYYDRSLPDVSATDFEKVDLTQFKWIHIEGRNASEQVKMLQRIDAHNTRQPPEQKIRVSVEVEKPREELFQLFGYGDVVFVSKDVAKHLGFQSAEEALRGLYGRVRKGAVLVCAWAEEGADALGPDGKLLHSDAFPPPRVVDTLGAGDTFNASVIFSLSQGRSVQEALRFGCQVAGKKCGLQGFDGIV
notes: ketohexokinase, splice isozyme A (KHK-A), human; good electron density for residues 3 to 298; theoretical molecular weight of the monomer printed as 34.65 kDa; Cloned into pET-28b(+) by GenScript; also called WT KHK-A; WT; source: E. coli BL21-CodonPlus-RIL, purified (Ni-NTA, Superdex 200 gel filtration)
B2: human ketohexokinase-A D15A (enzyme)
chain: B1 chain with D11A
notes: ketohexokinase, splice isozyme A (KHK-A), human, with D15A; Expressed and purified as described for WT KHK-A; PDB 2HLZ is the wild-type parent; also called KHK-A D15A; source: E. coli BL21-CodonPlus-RIL, purified (Ni-NTA, Superdex 200 gel filtration)
B3: human ketohexokinase-A K174A (enzyme)
chain: B1 chain with K170A
notes: ketohexokinase, splice isozyme A (KHK-A), human, with K174A; Expressed and purified as described for WT KHK-A; PDB 2HLZ is the wild-type parent; source: E. coli BL21-CodonPlus-RIL, purified (Ni-NTA, Superdex 200 gel filtration)
B4: human ketohexokinase-A R141E (enzyme)
chain: B1 chain with R137E
notes: ketohexokinase, splice isozyme A (KHK-A), human, with R141E; Results and legends print R141E; the abstract and the discussion speak of R141A / alanine at R141; PDB 2HLZ is the wild-type parent; source: E. coli BL21-CodonPlus-RIL, purified (Ni-NTA, Superdex 200 gel filtration)
B5: human ketohexokinase-A N42K (enzyme)
chain: B1 chain with N38K
notes: ketohexokinase, splice isozyme A (KHK-A), human, with N42K; Expressed and purified as described for WT KHK-A; PDB 2HLZ is the wild-type parent; source: E. coli BL21-CodonPlus-RIL, purified (Ni-NTA, Superdex 200 gel filtration)
B6: human ketohexokinase-A N45A (enzyme)
chain: B1 chain with N41A
notes: ketohexokinase, splice isozyme A (KHK-A), human, with N45A; Expressed and purified as described for WT KHK-A; PDB 2HLZ is the wild-type parent; source: E. coli BL21-CodonPlus-RIL, purified (Ni-NTA, Superdex 200 gel filtration)
B7: human ketohexokinase-A R141E/K174A double mutant (enzyme)
chain: B1 chain with R137E, K170A
notes: ketohexokinase, splice isozyme A (KHK-A), human, with R141E and K174A; Expressed and purified as described for WT KHK-A; PDB 2HLZ is the wild-type parent; source: E. coli BL21-CodonPlus-RIL, purified (Ni-NTA, Superdex 200 gel filtration)
B8: human ketohexokinase-A N42A (enzyme)
chain: B1 chain with N38A
notes: ketohexokinase, splice isozyme A (KHK-A), human, with N42A; Expressed and purified as described for WT KHK-A; PDB 2HLZ is the wild-type parent; also called KHK-A N42A; source: E. coli BL21-CodonPlus-RIL, purified (Ni-NTA, Superdex 200 gel filtration)

Biological target: the molecule itself
Test: mass photometry; 100 nM protein diluted in PBS (pH 7.4), room temperature, 60 s acquisition, TwoMP mass photometer; monomer to dimer

Protein	stoichiometry N
B1	2
B2	2
B3	2
B4	2
B5	2
B6	2
B7	2
B8	2
